These results are taken from PMC7525159.

This series has as its target T1, RegX3 (K204A) K204A (UniProt P9WGL9).
T1 sequence: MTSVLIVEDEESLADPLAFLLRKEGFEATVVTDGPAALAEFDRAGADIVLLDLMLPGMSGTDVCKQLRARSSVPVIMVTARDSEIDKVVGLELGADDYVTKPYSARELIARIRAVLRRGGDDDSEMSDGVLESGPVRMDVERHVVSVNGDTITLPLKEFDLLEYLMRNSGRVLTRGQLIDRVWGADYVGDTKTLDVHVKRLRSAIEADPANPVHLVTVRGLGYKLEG
The series is described as follows: EMSA. For orientation: A gel shift assay detects complexes by their altered migration in electrophoresis.

“CAGCTTTCTTTGCGCTAATTTAGGCGTACTCACAGCATGGGATGACCTGGGCAAATACCTCATCTATCCGCCCGGGATAGCATGCGGCGCAGGCGGCGAATGCGGCGCAGATGAACGCAGAGTTAATTCTCACGCAACGGTCCGATATTG (double strand) [whiB3 promoter -307 to -157 (WT)]”: the binding entry is recorded as “no binding”.
